Measured values: PMC7104407, “DBC1, p300, HDAC3, and Siah1 coordinately regulate ELL stability and function for expression of its target genes” (Proceedings of the National Academy of Sciences of the …, 2020)

Target: T1, GST–ELL (human, UniProt P55199 1-621)
T1 construct: ELL (ELL1), human elongation factor; also called purified recombinant GST–ELL; source: bacterial expression system, purified
Assay: pull-down; in vitro direct interaction assay with purified GST–ELL or GST and purified HDAC3
Conditions: both partners purified

binding result: binds
B1: HDAC3, purified (enzyme, human, UniProt O15379 1-428, looked up)
chain: MAKTVAYFYDPDVGNFHYGAGHPMKPHRLALTHSLVLHYGLYKKMIVFKPYQASQHDMCRFHSEDYIDFLQRVSPTNMQGFTKSLNAFNVGDDCPVFPGLFEFCSRYTGASLQGATQLNNKICDIAINWAGGLHHAKKFEASGFCYVNDIVIGILELLKYHPRVLYIDIDIHHGDGVQEAFYLTDRVMTVSFHKYGNYFFPGTGDMYEVGAESGRYYCLNVPLRDGIDDQSYKHLFQPVINQVVDFYQPTCIVLQCGADSLGCDRLGCFNLSIRGHGECVEYVKSFNIPLLVLGGGGYTVRNVARCWTYETSLLVEEAISEELPYSEYFEYFAPDFTLHPDVSTRIENQNSRQYLDQIRQTIFENLKMLNHAPSVQIHDVPADLLTYDRTDEADAEERGPEENYSRPEAPNEFYDGDHDNDKESDVEI
notes: histone deacetylase 3, human; also called purified HDAC3; source: overexpressed in mammalian 293T cells, purified (high salt-based purification method)
